Assay results published in PMC6614801 (2019).

B1: N-terminally His6-tagged NusA^AR2 (domain or fragment)
chain: DNKPADDLLNLEGVDRDLAFKLAARGVCTLEDLAEQGIDDLADIEGLTDEKAGALIMAARNICWFGDEA

How the values were obtained:
Assay in all cases: SPR
SuhB^KL251/254AA = SuhB^KL251/254AA (E. coli, UniProt P0ADG4 1-267, KL251/254AA | KL251/254AA)
SuhB^K108A = SuhB^K108A (E. coli, UniProt P0ADG4 1-267, K108A)
[1] = molecular target: B1

Binder | koff (SuhB^KL251/254AA) [s⁻¹] | koff (SuhB^K108A) [s⁻¹] | koff [1] [s⁻¹]
B1 | 0.341 | 0.0498 | –
SuhB (inositol mono-phosphatase SuhB), wild type (natural protein) MHPMLNIAVRAARKAGNLIAKNYETPDAVEASQKGSNDFVTNVDKAAEAVIIDTIRKSYPQHTIITEESGELEGTDQDVQWVIDPLDGTTNFIKRLPHFAVSIAVRIKGRTEVAVVYDPMRNELFTATRGQGAQLNGYRLRGSTARDLDGTILATGFPFKAKQYATTYINIVGKLFNECADFRRTGSAALDLAYVAAGRVDGFFEIGLRPWDFAAGELLVREAGGIVSDFTGGHNYMLTGNIVAGNPRVVKAMLANMRDELSDALKR | – | – | 0.0555
